In publication PMC4954732:

What was measured:
[1] = tested on: CBC (HapB/HapC/HapE) (Aspergillus fumigatus); assay: SPR; settings: SPR on immobilised biotinylated duplexes, 1:1 model with mass transport; buffer, salt, pH and temperature not stated (protocols of refs 19, 54)
[2] = molecular target: T1, SrbA bHLHZ (Aspergillus fumigatus) (UniProt Q4WIN1); assay: SPR; settings: SPR on immobilised biotinylated duplexes, 1:1 model with mass transport; buffer, salt, pH and temperature not stated (protocols of refs 19, 54)
T1 sequence: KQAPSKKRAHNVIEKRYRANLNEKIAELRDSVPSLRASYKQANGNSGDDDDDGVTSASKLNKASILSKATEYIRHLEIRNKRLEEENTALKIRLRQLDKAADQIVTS

Sequence | Kd [2] [nM] | also measured
GCTGAGCCGAATGAATCACGCGGTCCGGATGTGTGCT (double strand) [cyp51A-TR34] | – | fold decrease in affinity (fold lower affinity than cyp51A-293) [1]: 8
GCTGAGCCGAATGAAAGTTGCCTAATTACTAAGGTGT (double strand) [cyp51A-293] | – | Kd [1]: 74.4 nM
CGGCTCAGCACACATC (double strand) [SRE2 (cyp51Ap-295-16)] | 273 | –
AGAATCACGCGGTCCG (double strand) [SRE1 (cyp51Ap-320-16)] | 22.8 | –
